Laboratory results as given in patent US12545900B2, “CGAS/DNCV-like nucleotidyltransferases and uses thereof” (Dana-Farber Cancer Institute, Inc., priority 2018, dated 2026).
Entries after “also recorded” stand apart in the source; their conditions may differ.

How the values were obtained:
RECON = molecular target: T1, RECON (Mus musculus, UniProt Q8VC28); test: Gel shift assay, radiolabeled nucleotide binding to RECON (native PAGE); conditions: radiolabeled nucleotide, 0, 4, 20, 100 μM protein
T1 construct: 6xHis-SUMO2 (N, cleaved yes); made in house; host or cells: E. coli BL21 CodonPlus (DE3)-RIL
T1 sequence (Q8VC28 1-323): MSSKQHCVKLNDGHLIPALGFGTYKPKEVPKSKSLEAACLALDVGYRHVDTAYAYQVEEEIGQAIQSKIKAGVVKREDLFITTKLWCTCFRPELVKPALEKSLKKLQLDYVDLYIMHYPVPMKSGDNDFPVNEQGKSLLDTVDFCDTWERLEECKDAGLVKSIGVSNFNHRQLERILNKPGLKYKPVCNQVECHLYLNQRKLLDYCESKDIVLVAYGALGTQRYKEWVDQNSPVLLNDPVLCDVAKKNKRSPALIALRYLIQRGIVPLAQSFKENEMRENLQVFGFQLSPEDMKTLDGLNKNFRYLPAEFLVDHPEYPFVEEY
Method: (§1) Briefly, recombinant Mus musculus STING or RECON, at 4, 20, or 100 μM was incubated with radiolabeled nucleotide (≤1 μM final concentration) in gel shift buffer for final conditions of 50 mM Tris pH 7.5, 60 mM KCl, 5 mM Mg (OAc) 2, and 1 mM DTT. Experiments were prepared by combining 1 μL of [α-^32P] labeled nucleotide, 2 uL 5x gel shift buffer, 5 μL of nuclease free water, and started by addition of 2 μL of recombinant protein in storage buffer.
(§2) After 30 min of equilibration, bound and free nucleotide were separated by 6% native PAGE in 0.5x TBE buffer. Gels were dried, and exposed to phosphorscreen prior to detection by Typhoon Trio Variable Mode Imager system (GE Healthcare). Gel shifts were quantified with ImageQuant® 5.2 and the % bound nucleotide was calculated as a proportion of total bound and free nucleotide for each lane, after subtraction of background signal. Gel shift data is representative of ≥2 independent experiments.

CapE = molecular target: T2, CapE (Escherichia coli, UniProt Q6XGD4); test: Phospholipase assay (EnzChek Phospholipase A1), CapE; type: biochemical, E. coli; conditions: 0.1, 1, and 10-fold molar ratios of nucleotide to phospholipase
T2 construct: made in house; host or cells: E. coli BL21 CodonPlus (DE3)-RIL
T2 sequence (Q6XGD4 whole entry): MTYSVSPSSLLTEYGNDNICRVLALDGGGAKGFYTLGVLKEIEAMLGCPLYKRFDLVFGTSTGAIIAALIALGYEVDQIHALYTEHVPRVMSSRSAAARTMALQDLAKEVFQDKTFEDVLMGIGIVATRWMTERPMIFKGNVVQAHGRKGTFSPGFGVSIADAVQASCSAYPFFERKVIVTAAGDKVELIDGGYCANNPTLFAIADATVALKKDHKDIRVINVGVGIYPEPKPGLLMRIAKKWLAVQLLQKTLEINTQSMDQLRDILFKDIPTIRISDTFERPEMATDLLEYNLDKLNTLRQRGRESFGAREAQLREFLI
Method: Patatin-like lipases were assayed as previously described (Gaspar & Machner (2014) Proc. Natl. Acad. Sci. U.S.A. 111:4560-4565). Briefly, CapV and CapE were produced recombinantly and catalytic activity was measured using the EnzChek® Phospholipase A1 Assay Kit (Invitrogen) according to the manufacturer's instructions. […] Assays were monitored fluorometrically Ex=460 nm/Em=515 nm, for 60 min at ˜90 s intervals at room temperature using a Biotek Synergy plate reader. Slope of each reaction in the linear range was used to calculate activity (Linear regression/straight line analysis, Prism 7.0c). A PLA1 standard curve from 20-0.02 U was used to interpolate phospholipase activity. Emission was monitored at a gain of 100 and/or 50 in order to extend the linear range of the assay.

Mus musculus STING = molecular target: T3, Mus musculus STING (Mus musculus, UniProt Q3TBT3); test: Gel shift assay, radiolabeled nucleotide binding to STING (native PAGE); conditions: radiolabeled nucleotide, 0, 4, 20, 100 μM protein
T3 construct: 6xHis-SUMO2 (N, cleaved yes); made in house; host or cells: E. coli BL21 CodonPlus (DE3)-RIL
T3 sequence (Q3TBT3 138-378 limits assumed): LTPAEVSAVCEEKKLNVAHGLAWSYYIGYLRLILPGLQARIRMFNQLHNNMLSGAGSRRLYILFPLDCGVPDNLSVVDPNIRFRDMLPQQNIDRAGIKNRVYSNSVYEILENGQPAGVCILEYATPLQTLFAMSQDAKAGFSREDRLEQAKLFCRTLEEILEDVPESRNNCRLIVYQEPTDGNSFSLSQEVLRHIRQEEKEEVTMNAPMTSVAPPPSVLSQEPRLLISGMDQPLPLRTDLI
Method: as §1, §2

[1] = Second messenger synthesis assay ([α-32P] NTPs, TLC, MS/NMR of products); type: biochemical; conditions: for nucleotide product synthesized by the enzyme: purified enzyme with [α-32P] NTPs, TLC, products confirmed by MS/NMR
Method: Recombinant, candidate nucleotidyltransferase reactions combined 4 μL of 5× reaction buffer (250 mM CAPSO pH 9.4, […], 25 mM Mg (OAc) 2, 5 mM DTT), 2 μL of 10× NTPs, 1 uL [α-^32P] NTPs (˜1 uCi), 1 μL of candidate enzyme in storage buffer (˜20 μM), and a remaining volume of nuclease free water. The final reactions (50 mM CAPSO pH 9.4, 50 mM KCl, 5 mM Mg (OAc) 2, 1 mM DTT, ≤5% glycerol, 25-250 μM individual NTPs, trace amounts of [(-^32P] NTP, 1 μM enzyme) were started with addition of enzyme. Where indicated, pH was altered by replacing CAPSO buffer with appropriate buffer from “StockOptions pH Buffer Kit” (Hampton Research). When appropriate, Mg^2+ was replaced with an equimolar concentration of Mn^2+(MnCl2). cGAS reactions were always carried out with Tris at pH 7.5 and supplemented with 1 μM ISD45 dsDNA (Stetson & Medzhitov. (2006) Immunity 24:93-103). Reactions were carried out with 25 μM of each indicated NTP for FIGS. 1B, 3D, 8B, 8C, and 8D and for FIGS. 2C, 2G-2I, 5B, 5C, 10A-10D, 11A, 11B, and 13D. Reactions in all other figures were carried out with 250 μM NTP. The NTP/[α-^32P] NTPs in FIG. 1B are cGAS (ATP, GTP/[α-^32P] GTP), DncV (ATP, GTP/[α-^32P] ATP), DisA (ATP/[α-^32P] ATP), WspR (GTP/[xx-^32P] GTP), and CdnE (NTP/[{-^32P] NTP). P1 nuclease treated reactions in FIG. 1C and FIG. 11B are cGAS (ATP, GTP/[α-^32P] ATP), DncV (ATP, GTP/[α-^32P] GTP), CdnE (ATP, UTP/[<- ^32P] ATP), and Lp-CdnE02 (CTP, UTP/ [α-^32P] UTP) . Where indicated, nonhydrolyzable nucleotides [Ap (c) pp, Gp (c) pp, Cp (c) pp, or Up (n) pp (Jena)] were used at 25 μM.
Reactions were incubated for 2 h at 37° C. prior to analysis unless otherwise stated. Reactions were stopped by addition of 5 U of alkaline phosphatase (New England Biolabs) which removed triphosphates on remaining NTPs and converted the remaining nucleotide [α-^32P] to ^32Pi and allowed visualization of cyclic nucleotides. After a >20 min incubation, […] (PEI-cellulose) or 1 uL (silica) of the reaction was spotted 1.5 cm from the bottom of the TLC plate, spaced 0.8 cm apart. 20 cm×20 cm F-coated PEI-cellulose TLCs (Millipore) were developed in 1.5 M KH2PO4 (pH 3.8) until the buffer front reacted ˜1 cm from the top; 20 cm×10 cm F-coated silica HP-TLC plates (Millipore) were developed in 11:7:2 1-propanol: NH4OH: H2O in a chemical fume hood for 1 hour. Plates were dried and exposed to phosphorscreen prior to detection by Typhoon™ Trio Variable Mode Imager system (GE Healthcare). All TLC data are representative of ≥3 independent experiments, with the exception of the biochemical screen which represents ≥2 independent experiments.
Cyclic nucleotides were produced in large scale using previously described methods (Sureka et al. (2014) Cell 158:1389-1401) with the following changes. Small-scale second messenger synthesis assays were scaled up to […] reactions with final conditions of 50 mM CAPSO pH 9.4, 12.5-50 mM KCl, 5-20 mM Mg (OAc) 2, 1 mM DTT, ≤5% glycerol, 250 μM individual NTPs, and 1 μM enzyme. A 20 μL aliquot of the larger reaction was removed and [cx-^32P] NTP were added to follow reaction progress. Reactions were incubated for 24 hours at which time 5 U of CIP/mL of reaction was added and the reaction was further incubated for 2-24 hours. Reactions were heat inactivated at 65° C. for 30 min, diluted to a final salt concentration of 12.5 mM, and purified by anion exchange chromatography and FPLC (either 1 mL Q-Sepharose® column, or Mono Q 4.6/100 PE, GE Healthcare). The column was washed with water and 1 mL fractions were collected during a gradient elution with 2M ammonium acetate. Fractions harboring the appropriate product were identified by A260 and silica TLC, visualizing the nucleotide products by UV-shadowing, imaging using a handheld camera, and comparing migration to paired, radiolabeled reactions. Selected fractions were concentrated by evaporation and re-suspended in 30 μL of nuclease free water for MS. […]

## Nc1nc2c(ncn2[C@@H]2O[C@@H]3COP(=O)(O)O[C@H]4[C@@H](O)[C@H](n5cnc6c(N)ncnc65)O[C@@H]4COP(=O)(O)O[C@H]3[C@H]2O)c(=O)[nH]1 [3′3′ cGAMP, 3′-5′/3′-5′ cGAMP, reference compound]
RECON
  recognition/binding of nucleotide by RECON: detected by both STING and RECON
CapE
  activation of CapE phospholipase activity: exquisite specificity of CapE insulates this circuit from 3′3′ cGAMP

## Nc1ncnc2c1ncn2[C@@H]1O[C@@H]2COP(=O)(O)O[C@H]3[C@@H](O)[C@H](n4cnc5c(N)ncnc54)O[C@@H]3COP(=O)(O)O[C@H]2[C@H]1O [c-di-AMP, cyclic di-AMP, reference compound]
RECON
  recognition/binding of nucleotide by RECON: detected by both STING and RECON

## Nc1nc2c(ncn2[C@@H]2O[C@@H]3COP(=O)(O)O[C@H]4[C@@H](O)[C@H](n5cnc6c(=O)[nH]c(N)nc65)O[C@@H]4COP(=O)(O)O[C@H]3[C@H]2O)c(=O)[nH]1 [c-di-GMP, cyclic di-GMP, reference compound]
Mus musculus STING
  recognition/binding of nucleotide by STING: detected by STING

B1: Ec-CdnD02: CD-NTase from Enterobacter cloacae, SEQ ID NO: 112 (protein, listed as Enterobacter cloacae)
chain: MELQPQFNEFLANIRPTDTQKEDWKSGARTLRERLKNFEPLKEIVVSTFLQGSIRRSTAIRPLGDKRPDVDIVVVTNLDHTRMSPTDAMDLFIPFLEKYYPGKWETQGRSFGITLSYVELDLVITAIPESGAEKSHLEQLYKSESVLTVNSLEEQTDWRLNKSWTPNTGWLSESNSAQVEDAPASEWKAHPLVLPDREKNEWGRTHPLAQIRWTAEKNRLCNGHYINLVRAVKWWRQQNSEDLPKYPKGYPLEHLIGNALDNGTTSMAQGLVQLMDTFLSRWAAIYNQKSKPWLSDHGVAEHDVMARLTAEDFCSFYEGIASAAEIARNALASEEPQESAQLWRQLFGSKFPLPGPQGGDRNGGFTTPSKPAEPQKTGRFA
[1]
  nucleotide product synthesized by the enzyme: cyclic AMP-AMP-GMP (cAAG), a cyclic trinucleotide, is the major product

B2: Em-CdnE: CdnE from Elizabethkingia meningoseptica, SEQ ID NO: 201 (protein, listed as Elizabethkingia meningoseptica)
chain: MNFSEQQLINWSRPVSTTEDLKCQNAITQITAALRAKFGNRVTIFLQGSYRNNTNVRQNSDVDIVMRYDDAFYPDLQRLSESDKAIYNAQRTYSGYNFDELKADTEEALRNVFTTSVERKNKCIQVNGNSNRITADVIPCFVLKRFSTLQSVEAEGIKFYSDDNKEIISFPEQHYSNGTEKTNQTYRLYKRMVRILKVVNYRLIDDGEIADNLVSSFFIECLVYNVPNNQFISGNYTQTLRNVIVKIYEDMKNNADYTEVNRLFWLFSNRSPRTRQDALGFMQKCWNYLGYQ
[1]
  nucleotide product synthesized by the enzyme: robustly synthesized cyclic dipurines; also recorded: synthesis of c-di-AMP, cGAMP, and c-di-GMP

B3: CdnE: E. coli cGAS/DncV-like nucleotidyltransferase, SEQ ID NO: 166 (protein, listed as Escherichia coli)
chain: MGIPESQLDTWSHQGSIAQSASTYSIIKNALESANTKYHGKNFKVFLQGSYGNDTNIYAESDVDVVICLDDVYYSDLTQLSPEDKDAYDRAFVPATYSYTQFKQDVLEALTERFGSDVKVGDKAIVVAANGSRRKADVIASMQFRRYWKFKGHYDSQYDEGICFFNGAGERIANYPKQHSENLTLKHQASNKWLKPMVRVLKNLRSKLIADGKLKSGLAPSYYLEGLLYNVPNEKFGTSYADCFVNAMNWIQTEADKDKLVCANEQYYLLWEGTHTSWEKADAEAFIDAAIKMWNEW
[1]
  requirement of a cognate stimulus for enzyme activity: constitutively active and does not require a cognate stimulus
  nucleotide product synthesized by the enzyme: cyclic UMP-AMP (cUMP-AMP)
[1]; listed as wild-type CdnE
  nucleotide product synthesized by the enzyme: robustly synthesized cUMP-AMP

B4: Rm-CdnE: CdnE homolog from Rhodothermus marinus, SEQ ID NO: 198 (protein, listed as Rhodothermus marinus)
chain: MPVPESQLERWSHQGATTTAKKTHESIRAALDRYKWPKGKPEVYLQGSYKNSTNIRGDSDVDVVVQLNSVFMNNLTAEQKRRFGFVKSDYTWNDFYSDVERALTDYYGASKVRRGRKTLKVETTYLPADVVVCIQYRKYPPNRKSEDDYIEGMTFYVPSEDRWVVNYPKLHYENGAAKNQQTNEWYKPTIRMFKNARTYLIEQGAPQDLAPSYFLECLLYNVPDSKFGGTFKDTFCSVINWLKRADLSKFRCQNGQDDLFGEFPEQWSEEKARRFLRYMDDLWTGWGQ
[1]
  nucleotide product synthesized by the enzyme: synthesized cUMP-AMP
